This note sets out measurements from patent US20040002124A1 (MUNIN, published 2004).

This assay has as its target T1, αVβ3 integrin purified from HUVE cell lysates (human, UniProt P06756 31-1048; P05106 27-788).
T1 construct: mature; Detergent-solubilised native heterodimer, coated on plates; also called vitronectin receptor; immobilized integrin
The assay is described as follows: affinity chromatography of HUVE cell lysate on RGDSPK Sepharose. Here is the method:
αVβ₃ integrin purification from HUVE cell lysates was done as described in Pytela et al., Meth. Enzynmol., 144:475-489 (1987). Briefly, 10⁸ cells were lysed in 1 ml of PBS containing 1 mM CaCl₂, 1 mM MgCl₂, 0.5 mM PMSF and 100 mM octylglucoside. […] The purity of the integrin was determined by SDS-PAGE under non-reducing conditions, followed by silver staining.

Where no end group is shown, it is not given here.

T1 sequence (P06756 31-1048, chain 1 of 2): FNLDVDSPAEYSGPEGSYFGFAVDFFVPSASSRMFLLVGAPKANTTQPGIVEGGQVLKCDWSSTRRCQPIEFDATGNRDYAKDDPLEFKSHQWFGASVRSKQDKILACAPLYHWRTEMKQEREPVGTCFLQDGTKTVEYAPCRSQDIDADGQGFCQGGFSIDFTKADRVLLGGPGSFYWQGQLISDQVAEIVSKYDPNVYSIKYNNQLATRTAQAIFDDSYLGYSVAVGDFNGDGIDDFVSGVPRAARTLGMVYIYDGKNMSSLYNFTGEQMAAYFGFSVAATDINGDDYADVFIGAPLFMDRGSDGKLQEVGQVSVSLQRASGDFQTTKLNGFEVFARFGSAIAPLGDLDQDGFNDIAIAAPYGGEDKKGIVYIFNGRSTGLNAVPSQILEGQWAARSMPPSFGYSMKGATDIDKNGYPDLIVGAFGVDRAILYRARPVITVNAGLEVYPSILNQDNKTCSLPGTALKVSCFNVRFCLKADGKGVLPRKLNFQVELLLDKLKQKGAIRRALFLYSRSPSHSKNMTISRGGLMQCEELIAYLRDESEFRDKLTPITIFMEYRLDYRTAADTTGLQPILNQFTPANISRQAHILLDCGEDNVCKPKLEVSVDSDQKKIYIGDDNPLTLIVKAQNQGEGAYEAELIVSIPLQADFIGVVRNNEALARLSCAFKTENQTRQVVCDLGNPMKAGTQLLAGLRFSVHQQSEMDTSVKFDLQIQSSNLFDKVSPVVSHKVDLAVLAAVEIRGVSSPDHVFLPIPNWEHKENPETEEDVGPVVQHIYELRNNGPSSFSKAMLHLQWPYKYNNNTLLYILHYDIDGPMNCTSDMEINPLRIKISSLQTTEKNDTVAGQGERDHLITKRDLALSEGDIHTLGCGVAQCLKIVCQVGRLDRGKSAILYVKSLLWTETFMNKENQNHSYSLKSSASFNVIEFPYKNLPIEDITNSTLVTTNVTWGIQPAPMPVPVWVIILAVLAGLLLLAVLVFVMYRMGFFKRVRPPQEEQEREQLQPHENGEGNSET
T1 sequence (P05106 27-788, chain 2 of 2): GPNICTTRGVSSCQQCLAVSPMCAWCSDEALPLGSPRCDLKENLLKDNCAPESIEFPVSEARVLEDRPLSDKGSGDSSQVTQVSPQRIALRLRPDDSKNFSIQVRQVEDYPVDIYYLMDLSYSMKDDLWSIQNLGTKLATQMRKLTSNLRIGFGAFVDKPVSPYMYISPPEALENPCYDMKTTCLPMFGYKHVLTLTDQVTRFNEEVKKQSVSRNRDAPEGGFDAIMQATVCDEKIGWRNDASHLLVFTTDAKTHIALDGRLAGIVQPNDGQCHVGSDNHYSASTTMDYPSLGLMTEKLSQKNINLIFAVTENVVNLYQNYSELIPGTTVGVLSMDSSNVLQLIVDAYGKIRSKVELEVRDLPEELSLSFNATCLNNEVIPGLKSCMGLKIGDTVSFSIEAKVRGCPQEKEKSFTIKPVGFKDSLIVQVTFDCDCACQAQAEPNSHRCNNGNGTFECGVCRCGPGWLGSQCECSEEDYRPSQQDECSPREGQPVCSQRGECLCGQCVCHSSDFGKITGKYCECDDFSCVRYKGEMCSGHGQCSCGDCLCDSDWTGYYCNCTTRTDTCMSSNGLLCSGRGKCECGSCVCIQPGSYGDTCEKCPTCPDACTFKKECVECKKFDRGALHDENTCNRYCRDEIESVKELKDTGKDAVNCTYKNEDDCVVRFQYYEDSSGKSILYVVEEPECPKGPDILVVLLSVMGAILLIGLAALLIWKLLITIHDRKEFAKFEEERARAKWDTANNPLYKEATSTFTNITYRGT

B1: RGDSPK Sepharose (peptide)
peptide: RGDSPK
modifications: also: coupled to cyanogen bromide activated Sepharose CL 4B
notes: also called RGDSPK peptide
Regarding B1, the binding result was “binds”.
